According to patent US20050054571A1, “Antimicrobial proteins from the SPO1 bacteriophage” (Rice University, priority 2003, published 2005):

B1: Gene 44: product of SPO1 host-takeover gene 44, SEQ ID NO: 8 (protein)
chain: MAKSNNVYVVNGEEKVSTLAEVAKVLGVSRVSKKDVEEGKYDVVVEEAAVSLADTEEVVEEVVTEEEDILEGVEVVEDEEEEEAAEDVEEPTSEEDSEDEWEEGYPVATEVEEDEDEEIEYPEVGDFEDEKAIKKYIKGLTDEQLQAWCELEGAEWVENEHRNINRMRMAMAIKAVHFPELAKKPSSKKKSKYAEYTTEELVEMAIDNNVEVRDDKGNERILRMYTIIALREAGLIS
modifications: SPO1 Bacteriophage
B2: Gene 56: product of SPO1 host-takeover gene 56, SEQ ID NO: 20 (protein)
chain: MFKYTDRSVRQYIERQQRSAMLEQEQAEKDKKERRKAGLLFFGTIVVLVAVVAVYIVPQSLDAMWHENYEKPAQEAARN
modifications: SPO1 Bacteriophage
B3: Gene 51: product of SPO1 host-takeover gene 51, SEQ ID NO: 15 (protein)
chain: MAKINKGYVANFIEENGFPEQGHFEEKKDLQAFYKHLSTEQLEEWVELEGLEVKDTDSDSIYRMRLCMAILYLNFPKKTAGKKKASPYKHISLEELVQMATDNDIEVKHTDSDKILRMRTIMALKEAGKLG
modifications: SPO1 Bacteriophage

Key:
[1] = test system: E. coli; experiment: Effect of induced expression of cloned SPO1 genes on growth and viability of E. coli (liquid medium and colony formation); format: cell-based; conditions: cloned gene(s) expressed from IPTG-inducible promoter, * = lethality conclusion based on failure to clone, ** = data not conclusive
Excerpt: (§1) For analysis of antimicrobial activity we first cloned most of the 24 host-takeover genes (genes 37-60) singly or in multiple gene combinations into a B. subtilis/E. coli shuttle vector (pPW19) under control of an IPTG-inducible promoter (Wei and Stewart, 1993). […] These remaining genes are being cloned using expression vectors with more tightly regulated promoters, such as pJONEX4 (Sayers, 1996), pET101, or pX (Kim et al., 1996). The transformed E. coli and B. subtilis were used to determine the antimicrobial activity, if any, of the cloned genes. The effect of induction on bacterial growth and viability was measured both in liquid medium and by colony formation. Definitive establishment of lethality was shown by loss of the ability to form colonies even after removal from the inducing agent. Indication of probable lethality was based on total inability to form colonies under inducing conditions.

[2] = test system: B. subtilis; experiment: Effect of induced expression of cloned SPO1 genes on growth and viability of B. subtilis (liquid medium and colony formation); format: cell-based; conditions: cloned gene(s) expressed from IPTG-inducible promoter, * = lethality conclusion based on failure to clone, ** = data not conclusive
Excerpt: as §1

[3] = test system: E. coli strain DH5(pPW27); experiment: Killing of E. coli by IPTG-induced expression in liquid medium, viable cells counted by plating without inducer (FIG. 8); format: cell-based; conditions: within three hours after induction at time 0 (0.2 mM IPTG), plating in the absence of inducer
Procedure: FIG. 8. Expression of SPO1 GP44 in E. coli. Cells of E. coli strain DH5(pPW27), which expresses SPO1 gene 44 from an IPTG-inducible promoter, were transformed either with vector pACYC177 or with plasmid pPW40, in which the mutant ipoB gene had been cloned in pACYC177. Aliquots of the two cultures were induced by adding 0.2 mM IPTG at time 0, and were assayed for viable cells at various times thereafter, by plating on media lacking IPTG. Open symbols, no IPTG; Closed symbols, 0.2 mM IPTG added at time 0; Squares, mutant rpoB; and Circles, no mutant rpob. Viable cell count is expressed in cells/ml ×10^−6.
(§2) In cells growing in liquid medium, expression of the cloned gene 44 was induced at time 0. At subsequent times, the number of cells remaining viable was measured by plating in the absence of inducer. More than 99% of the cells were killed within three hours.

[4] = test system: bacterial DNA, RNA, and protein synthesis; experiment: DNA, RNA and protein synthesis in uninfected bacteria expressing cloned SPO1 genes; format: cell-based, B. subtilis or E. coli; conditions: expression of cloned gene(s) in uninfected cells
Procedure: Pulse Labeling: Rates of synthesis of host and phage RNA or protein were measured in C4 medium as described previously (Wei and Stewart, 1993), by pulse-labeling for 5 minutes with [5-^3H]uridine, or [4,5-^3H]leucine, precipitating with TCA, and counting the precipitate. Since SPO1 DNA contains hmUra in place of thymine, host DNA synthesis could be measured independently by pulsing with [methyl-^3H]thymidine. Phage DNA synthesis was measured by pulsing with [2,8-^3H]adenine, and measuring alkali-stable, TCA-precipitable counts. Pulsing with [2,8-^3H]adenine measures host as well as phage DNA synthesis, but most host DNA synthesis has been shut off by the time that phage replication begins, even in mutant infections, so incorporation of label after 12 minutes is overwhelmingly into phage DNA. The time given for each pulse is the time at which the pulse began.
Adding gene 50 to the 51 clone increases its lethal efficiency, as does combining all 3 genes in a single clone. […] Mutants resistant to genes 51/50 have been isolated, but the mutant gene(s) have not yet been identified. […] The effects on DNA and protein synthesis are probably indirect effects of the inhibition of host RNA synthesis.
The simplest hypothesis as to how GP44/50/51 regulate gene expression is that they interact with the host's RNAP to change its transcriptional specificity. […]

[5] = test system: bacterial DNA, RNA, and protein synthesis; conditions: uninfected cells of either B. subtilis or E. coli; Wei and Stewart, 1993, 1995; cited from earlier work
[6] = test system: B. subtilis; experiment: Effect of gene expression on cell division of B. subtilis; format: cell-based; conditions: expression of the gene alone in B. subtilis
Excerpt: Genes 58-56: Expression of the whole operon is lethal to both species. […] Infection by SPO1 inhibits cell division, and a gene 56 mutation prevents that inhibition. B. subtilis mutants resistant to GP56 have been isolated, but the mutant gene(s) has not yet been identified.

[7] = test system: bacteria; experiment: Toxicity or lethality of expression of cloned SPO1 genes, bacterium not given; format: cell-based
Excerpt: as §1, §2

| Molecule | Lethality, E. coli ([1]; listed as 44) | Lethality, B. subtilis ([2]; listed as 44) | cells killed [3] | effect of expression on bacterial DNA, RNA and protein synthesis [4] | effect of expression on bacterial RNA synthesis and viability [5] | Lethality, E. coli [1] | Lethality, B. subtilis ([2]; listed as 56) | effect on cell division [6] | toxicity or lethality of expression [7] | Lethality, E. coli ([1]; listed as 51) | Lethality, B. subtilis ([2]; listed as 51) |
| --- | --- | --- | --- | --- | --- | --- | --- | --- | --- | --- | --- |
| B1 | Lethal | Lethal | More than 99% | inhibiting DNA, RNA, and protein synthesis | caused the shutoff of bacterial RNA synthesis and cell death | – | – | – | – | – | – |
| B2 | – | – | – | – | – | Mildly toxic | Lethal | specifically inhibiting cell division, without affecting DNA synthesis or chromosomal segregation | lethal effect | – | – |
| B3 | – | – | – | inhibiting DNA, RNA, and protein synthesis | – | – | – | – | – | Lethal | Lethal |
